Data as given in publication doi:10.1101/2020.12.08.415398 (bioRxiv, 2020).
Where two headings read alike, the source gives them in different places.

What was measured:
[1] = biological target: T1, GPR133 (ADGRD1) C-terminal fragment (CTF) with C-terminal TwinStrep tag, from C-terminally tagged wild-type … (human); test: pull-down
T1 chain: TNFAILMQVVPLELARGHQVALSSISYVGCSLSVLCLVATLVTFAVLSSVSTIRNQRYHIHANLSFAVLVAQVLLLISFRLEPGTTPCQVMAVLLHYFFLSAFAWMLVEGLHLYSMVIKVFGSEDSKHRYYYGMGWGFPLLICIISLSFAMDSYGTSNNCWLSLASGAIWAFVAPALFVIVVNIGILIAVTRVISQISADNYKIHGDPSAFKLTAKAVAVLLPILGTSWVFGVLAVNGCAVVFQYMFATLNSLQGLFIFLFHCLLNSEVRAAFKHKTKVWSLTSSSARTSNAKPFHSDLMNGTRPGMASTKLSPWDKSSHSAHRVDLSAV

[2] = biological target: T1, GPR133 (ADGRD1) C-terminal fragment …; test: pull-down

NTF/CTF ratio in the elution (densitometry) [1]: 1
NTF/CTF ratio in the elution (densitometry) [2]: 0.17
B1: GPR133 (ADGRD1) N-terminal fragment (NTF), from C-terminally TwinStrep-tagged wild-type GPR133 (domain or fragment, human)
chain: VYSRSQDHPGFQVLASASHYWPLENVDGIHELQDTTGDIVEGKVNKGIYLKEEKGVTLLYYGRYNSSCISKPEQCGPEGVTFSFFWKTQGEQSRPIPSAYGGQVISNGFKVCSSGGRGSVELYTRDNSMTWEASFSPPGPYWTHVLFTWKSKEGLKVYVNGTLSTSDPSGKVSRDYGESNVNLVIGSEQDQAKCYENGAFDEFIIWERALTPDEIAMYFTAAIGKHALLSSTLPSLFMTSTASPVMPTDAYHPIITNLTEERKTFQSPGVILSYLQNVSLSLPSKSLSEQTALNLTKTFLKAVGEILLLPGWIALSEDSAVVLSLIDTIDTVMGHVSSNLHGSTPQVTVEGSSAMAEFSVAKILPKTVNSSHYRFPAHGQSFIQIPHEAFHRHAWSTVVGLLYHSMHYYLNNIWPAHTKIAEAMHHQDCLLFATSHLISLEVSPPPTLSQNLSGSPLITVHLKHRLTRKQHSEATNSSNRVFVYCAFLDFSSGEGVWSNHGCALTRGNLTYSVCRCTHL
modifications: glycosylated (nine N-linked glycosylation sites predicted within the NTF; positions not given)
